Laboratory results as given in the supplement of paper PMC11246515.
± gives the standard deviation of the averaged measurements.

Test: total protein half-life in vivo (active degradation + dilution); higher = more stable protein
[1] = E. coli NCM3722 delta-clpP delta-lon delta-hslV, growth: N-lim chemostat, doubling time 6 h
[2] = E. coli NCM3722 delta-clpP, growth: N-lim chemostat, doubling time 6 h
[3] = E. coli NCM3722 delta-hslV, growth: N-lim chemostat, doubling time 6 h
[4] = E. coli NCM3722 delta-smpB, growth: N-lim chemostat, doubling time 6 h
[5] = wild type E. coli NCM3722, growth: C-lim chemostat, doubling time 3 h
[6] = wild type E. coli NCM3722, growth: C-lim chemostat, doubling time 6 h
[7] = wild type E. coli NCM3722, growth: C-lim chemostat, doubling time 12 h
[8] = wild type E. coli NCM3722, growth: N-lim chemostat, doubling time 6 h
[9] = wild type E. coli NCM3722, growth: N-lim chemostat, doubling time 12 h
[10] = wild type E. coli NCM3722, growth: P-lim chemostat, doubling time 6 h
[11] = wild type E. coli NCM3722, growth: P-lim chemostat, doubling time 12 h
[12] = E. coli NCM3722 delta-lon, growth: N-lim chemostat, doubling time 6 h

Sequence	total protein half-life in vivo [1] [h]	total protein half-life in vivo [2] [h]	total protein half-life in vivo [3] [h]	total protein half-life in vivo [4] [h]	total protein half-life in vivo [5] [h]	total protein half-life in vivo [6] [h]	total protein half-life in vivo [7] [h]	total protein half-life in vivo [8] [h]	total protein half-life in vivo [9] [h]	total protein half-life in vivo [10] [h]	total protein half-life in vivo [11] [h]	total protein half-life in vivo [12] [h]
MSLTELTGNPRHDQLLMLIAERGYMNIDELANLLDVSTQTVRRDIRKLSEQGLITRHHGGAGRASSVVNTAFEQREVSQTEEKKAIAEAVADYIPDGSTIFITIGTTVEHVARALLNHNHLRIITNSLRVAHILYHNPRFEVMVPGGTLRSHNSGIIGPSAASFVADFRADYLVTSVGAIESDGALMEFDVNEANVVKTMMAHARNILLVADHTKYHASAAVEIGNVAQVTALFTDELPPAALKSRLQDSQIEIILPQEDA	5.99 ± 0.15	4.97 ± 0.17	5.17 ± 0.35	4.98 ± 0.86	2.8 ± 0.12	5.113 ± 0.0071	10.7 ± 0.88	4.89 ± 1	8.59	4.9 ± 0.25	8.679 ± 0.03	
MSLTLTLTGTGGAQGVPAWGCECAACARARRSPQYRRQPCSGVVKFNDAITLIDAGLHDLADRWSPGSFQQFLLTHYHMDHVQGLFPLRWGVGDPIPVYGPPDEQGCDDLFKHPGLLDFSHTVEPFVVFDLQGLQVTPLPLNHSKLTFGYLLETAHSRVAWLSDTAGLPEKTLKFLRNNQPQVMVMDCSHPPRADAPRNHCDLNTVLALNQVIRSPRVILTHISHQFDAWLMENALPSGFEVGFDGMEIGVA	6.78	4.09 ± 0.048	4.36 ± 0.11	4.8	2.37	4.07	9.33 ± 0.34	4.3	7.1	4.41	8.54 ± 2.5	4.56 ± 0.17
MSNFINIHVLISHSPSCLNRDDMNMQKDAIFGGKRRVRISSQSLKRAMRKSGYYAQNIGESSLRTIHLAQLRDVLRQKLGERFDQKIIDKTLALLSGKSVDEAEKISADAVTPWVVGEIAWFCEQVAKAEADNLDDKKLLKVLKEDIAAIRVNLQQGVDIALSGRMATSGMMTELGKVDGAMSIAHAITTHQVDSDIDWFTAVDDLQEQGSAHLGTQEFSSGVFYRYANINLAQLQENLGGASREQALEIATHVVHMLATEVPGAKQRTYAAFNPADMVMVNFSDMPLSMANAFEKAVKAKDGFLQPSIQAFNQYWDRVANGYGLNGAAAQFSLSDVDPITAQVKQMPTLEQLKSWVRNNGEA	6.17 ± 0.55	2.77			2.13	4.22				5.28	11.4 ± 1.2	2.71
MSNKNVNVRKSQEITFCLLAGILMFMAMMVAGRAEAGVALGATRVIYPAGQKQEQLAVTNNDENSTYLIQSWVENADGVKDGRFIVTPPLFAMKGKKENTLRILDATNNQLPQDRESLFWMNVKAIPSMDKSKLTENTLQLAIISRIKLYYRPAKLALPPDQAAEKLRFRRSANSLTLINPTPYYLTVTELNAGTRVLENALVPPMGESTVKLPSDAGSNITYRTINDYGALTPKMTGVME	4.77			5.38 ± 0.18		5.55 ± 0.66	> 16	7.84	14.8	5.67	13.2 ± 3	
MSNKPFHYQAPFPLKKDDTEYYLLTSEHVSVSEFEGQEILKVAPEALTLLARQAFHDASFMLRPAHQQQVADILRDPEASENDKYVALQFLRNSDIAAKGVLPTCQDTGTAIIVGKKGQRVWTGGGDEAALARGVYNTYIEDNLRYSQNAPLDMYKEVNTGTNLPAQIDLYAVDGDEYKFLCIAKGGGSANKTYLYQETKALLTPGKLKNYLVEKMRTLGTAACPPYHIAFVIGGTSAETNLKTVKLASAKYYDELPTEGNEHGQAFRDVELEKELLIEAQNLGLGAQFGGKYFAHDIRVIRLPRHGASCPVGMGVSCSADRNIKAKINRQGIWIEKLEHNPGKYIPEELRKAGEGEAVRVDLNRPMKEILAQLSQYPVSTRLSLNGTIIVGRDIAHAKLKERMDNGEGLPQYIKDHPIYYAGPAKTPEGYASGSLGPTTAGRMDSYVDQLQAQGGSMIMLAKGNRSQQVTDACKKHGGFYLGSIGGPAAVLAQGSIKSLECVEYPELGMEAIWKIEVEDFPAFILVDDKGNDFFQQIQLTQCTRCVK [P0AC33]	4.02 ± 1.1	2.82 ± 0.17	2.53 ± 0.47	2.36 ± 0.071	3.13 ± 0.2	4.39 ± 0.14	7.67 ± 1.4	2.51 ± 0.22	3.37 ± 0.11	5.02 ± 0.12	8.932 ± 0.051	2.86 ± 0.043
MSNNALQTIINARLPGEEGLWQIHLQDGKISAIDAQSGVMPITENSLDAEQGLVIPPFVEPHIHLDTTQTAGQPNWNQSGTLFEGIERWAERKALLTHDDVKQRAWQTLKWQIANGIQHVRTHVDVSDATLTALKAMLEVKQEVAPWIDLQIVAFPQEGILSYPNGEALLEEALRLGADVVGAIPHFEFTREYGVESLHKTFALAQKYDRLIDVHCDEIDDEQSRFVETVAALAHHEGMGARVTASHTTAMHSYNGAYTSRLFRLLKMSGINFVANPLVNIHLQGRFDTYPKRRGITRVKEMLESGINVCFGHDDVFDPWYPLGTANMLQVLHMGLHVCQLMGYGQINDGLNLITHHSARTLNLQDYGIAAGNSANLIILPAENGFDALRRQVPVRYSVRGGKVIASTQPAQTTVYLEQPEAIDYKR	6.27 ± 0.14	5.838 ± 0.02	5.57 ± 0.45	5.64 ± 0.32	2.9 ± 0.17	5.8 ± 0.1	14.3 ± 0.34	5.43 ± 0.29	12.3 ± 1.4		12.7 ± 0.35	6.13 ± 0.073
MSNNEFHQRRLSATPRGVGVMCNFFAQSAENATLKDVEGNEYIDFAAGIAVLNTGHRHPDLVAAVEQQLQQFTHTAYQIVPYESYVTLAEKINALAPVSGQAKTAFFTTGAEAVENAVKIARAHTGRPGVIAFSGGFHGRTYMTMALTGKVAPYKIGFGPFPGSVYHVPYPSDLHGISTQDSLDAIERLFKSDIEAKQVAAIIFEPVQGEGGFNVAPKELVAAIRRLCDEHGIVMIADEVQSGFARTGKLFAMDHYADKPDLMTMAKSLAGGMPLSGVVGNANIMDAPAPGGLGGTYAGNPLAVAAAHAVLNIIDKESLCERANQLGQRLKNTLIDAKESVPAIAAVRGLGSMIAVEFNDPQTGEPSAAIAQKIQQRALAQGLLLLTCGAYGNVIRFLYPLTIPDAQFDAAMKILQDALSD	3.77 ± 0.53		1	0.902 ± 0.068	2.883 ± 0.027	2.81 ± 0.47	4.33 ± 0.44	1.25	1.67	3.46 ± 0.35	5.88 ± 0.5	
